Reference: US20230295310A1 (ABCELLERA BIOLOGICS, published 2023)

Tests used:
[1] = molecular target: T1, human CD3 expressed on cells (Jurkat cells; human primary T cells) (human, UniProt P07766 23-207; P04234 22-171; P09693 23-182); test: flow cytometry, 25 nM, human primary T cells
T1 construct: whole, on cells
Procedure: (§1) Purified antibodies were confirmed to bind CD3 expressed on cells using the CytoFLEX S or LX flow cytometers (Beckman Coulter). Antibodies were diluted to 25 nM in FACS buffer (PBS+2% FBS) and were incubated with CD3-expressing cells for 30 minutes at 4° C. […] The median fluorescence intensity of the binding signal for each antibody was normalized to the isotype control to obtain a fold over isotype value. An antibody with a fold over isotype (FOI) of ≥10 was considered to be positive for binding.

[2] = molecular target: T1, human CD3 expressed on cells (Jurkat …); test: flow cytometry, 25 nM, Jurkat cells
Procedure: as §1

[3] = molecular target: T2, cynomolgus monkey CD3 expressed on cyno primary T cells (cynomolgus monkey, UniProt Q95LI5 22-198; Q95LI8 22-171; Q95LI7 23-181); test: flow cytometry, cyno primary T cells
T2 construct: whole, on cells; CD3 complex on purified cynomolgus monkey CD3 pan T cells; also called cyno CD3
T2 sequence (Q95LI5 22-198, chain 1 of 3): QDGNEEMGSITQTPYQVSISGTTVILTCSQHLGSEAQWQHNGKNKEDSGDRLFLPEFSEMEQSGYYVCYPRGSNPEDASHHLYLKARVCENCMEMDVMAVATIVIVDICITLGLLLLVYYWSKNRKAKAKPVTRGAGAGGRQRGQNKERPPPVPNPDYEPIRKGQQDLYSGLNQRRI
T2 sequence (Q95LI8 22-171, chain 2 of 3): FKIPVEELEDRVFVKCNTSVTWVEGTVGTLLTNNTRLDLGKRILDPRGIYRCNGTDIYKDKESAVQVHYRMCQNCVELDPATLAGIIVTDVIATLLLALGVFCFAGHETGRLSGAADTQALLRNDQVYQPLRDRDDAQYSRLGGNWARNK
T2 sequence (Q95LI7 23-181, chain 3 of 3): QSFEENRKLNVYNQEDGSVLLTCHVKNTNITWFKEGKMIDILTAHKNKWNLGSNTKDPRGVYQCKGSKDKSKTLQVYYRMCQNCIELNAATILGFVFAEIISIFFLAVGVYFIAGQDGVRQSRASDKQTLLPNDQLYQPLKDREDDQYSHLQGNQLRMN
In short: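 Binding readout: MFI divided by isotype-control MFI (fold over isotype), positive at ≥10. Cells were stained with 25 nM antibody, 30 min, 4° C, in PBS/2% FBS before flow cytometry.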

T1 sequence (P07766 23-207, chain 1 of 3): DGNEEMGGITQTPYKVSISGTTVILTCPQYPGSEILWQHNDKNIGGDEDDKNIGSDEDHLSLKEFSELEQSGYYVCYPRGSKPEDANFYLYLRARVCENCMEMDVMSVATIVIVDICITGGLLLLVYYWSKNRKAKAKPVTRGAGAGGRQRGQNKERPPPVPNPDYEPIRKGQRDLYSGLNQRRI
T1 sequence (P04234 22-171, chain 2 of 3): as the sequence (Q95LI8 22-171, chain 2 of 3) above, with V5I, K15N, V20I, T32S, N33D, N34I, A64T, N74S, L83V, R141H counted along it
T1 sequence (P09693 23-182, chain 3 of 3): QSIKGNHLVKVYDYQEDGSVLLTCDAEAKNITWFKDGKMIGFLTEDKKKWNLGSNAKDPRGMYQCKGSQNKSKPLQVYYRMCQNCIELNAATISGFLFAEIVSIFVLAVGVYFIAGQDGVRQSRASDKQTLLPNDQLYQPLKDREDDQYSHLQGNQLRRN

Binder	Binding (FOI) [1] [FOI]	Binding (FOI) [2] [FOI]	binding result [3]
mAb 212 (antibody, V domains shown, VH/VL only) VH: EVQLLESGGGLVQPGGSLRLSCAASGFTFSNYAMNWVRQAPGKGLEWVSAISGSRSNTYYADSVKGRFTISRDNSKNTLYLQMNSLRAEDTGVYYCAKGAYSKYPYYYYMDVWGKGTTVTVSS VL: EIVMTQSPATLSLSPGERATLSCRASQSVSSSYLSWYQQKPGQAPRLLIYGASTRAIGIPARFSGSGSGTDFTLTISSLQAEDFAVYYCQQDDNLPWTFGQGTKVEIK	160	150	no binding (tested: FOI <10 (FOI >=10 = positive); 25 nM)
mAb 214 (antibody, V domains shown, VH/VL only) VH: EVQLLESGGGLVQPGGSLRLSCAASGFTFSNYAMNWVRQAPGKGLEWVSAISGSRSNTYYADSVKGRFTISRDNSKNTLYLQMNSLRAEDTAVYYCAKGAYSKYPYYYYMDVWGKGTTVTVSS VL: EIVMTQSPATLSLSPGERATLSCRASQSVSSSYLSWYQQKPGQAPRLLIYGASTRAIGIPARFSGSGSGTDFTLTISSLQAEDFAVYYCQQDDNLPWTFGQGTKVEIK	162	150	no binding (tested: FOI <10 (FOI >=10 = positive); 25 nM)
mAb 221 (antibody, V domains shown, VH/VL only) VH: QVQLVESGGGVVQPGGSLRLSCAASGFTFSGYGMHWVRQAPGKGLEWVAIIWYNGRKTYYAESVKGRFTISRDNSKNTLSLQMNSLRVEDTAVYYCTAGQGYNWFDPWGQGTLVTVSS VL: EIVMTQSPATLSVSPGERATLSCRASQSVSSNLAWYQQKPGQAPRLLIYGASTRATGIPARFSGSGSGTEFTLTISSLQSEDFAVYYCQQFNAWPLTFGGGTKMEIK	239	181	no binding (tested: FOI <10 (FOI >=10 = positive); 25 nM)
mAb 194 (antibody, V domains shown, VH/VL only) VH: QEQLVESGGGVVQPGGSLRLSCAASGFIFSGYGMHWVRQAPGKGLEWVAIIWYNGRKTYYAESVKGRFTISRDNSKNTLSLQMNSLRVEDTAVYYCTAGQGYNWFDPWGQGTLVTVSS VL: EIVMTQSPATLSVSPGERATLSCRASQSVSSNLAWYQQKPGQAPRLLIYGASTRATGIPARFSGSGSGTEFTLTISSLQSEDFAVYYCQQFNAWPLTFGGGTKMEIK	217	199	no binding (tested: FOI <10 (FOI >=10 = positive); 25 nM)
mAb 213 (antibody, V domains shown, VH/VL only) VH: QEQLVESGGGVVQPGGSLRLSCAASGFTFSGYGMHWVRQAPGKGLEWVAIIWYNGRKTYYAESVKGRFTISRDNSKNTLSLQMNSLRVEDTAVYYCTTGKGYNWFDPWGQGTLVTVSS VL: EIVMTQSPATLSVSPGERATLSCRASQSVSSNLAWYQQKPGQAPRLLIYGASTRATGIPARFSGSGSGTEFTLTISSLQSEDFAVYYCQQFNAWPLTFGGGTKMEIK	248	192	no binding (tested: FOI <10 (FOI >=10 = positive); 25 nM)
mAb 219 (antibody, V domains shown, VH/VL only) VH: QEQLVESGGGVVQPGGSLRLSCAASGFMFSGYGMHWVRQAPGKGLEWVAIIWYNGRKTYYTESVKGRFTISRDNSKNTLSLQMNSLRVEDTAVYYCTAGQGYNWFDPWGQGTLVTVSS VL: EIVMTQSPATLSVSPGERATLSCRASQSVSSNLAWYQQKPGQAPRLLIYGASTRATGIPARFSGSGSGTEFTLTISSLQSEDFAVYYCQQFNAWPLTFGGGTKMEIK	245	175	no binding (tested: FOI <10 (FOI >=10 = positive); 25 nM)
mAb 206 (antibody, V domains shown, VH/VL only) VH: QVQLVESGGGVVQPGRSLRLSCAASGFTFSGYGMHWVRQAPGKGLEWVAIIYYNGNNRKYADSVKGRFTISRDNSKNTVSLQMNSLRVEDTAIYYCTRGDGYNWFVTWGQGTLVTVSS VL: EIVMTQSPATLSVSPGERATLSCRASQSVSSNLAWYHQKPGQAPRLLIYGASTRATGIPVRFSGSGSGTEFTLTISSLQSEDFAVYYCQQYNNWPLTFGGGTKVEIK	198	186	no binding (tested: FOI <10 (FOI >=10 = positive); 25 nM)
mAb 195 (antibody, V domains shown, VH/VL only) VH: QEQLVESGGGVVQSGRSLRLSCVASGFKFSGYGMHWVRQAPGKGLEWVAIIYYDGKNKYYADSVKGRFTISRDNSKNTLYLQMNSLRAEDTAVYYCTRGAGYNWFDSWGQGTLVTVSS VL: EIVMTQSPATLSVSPGERATLSCRASQSVRNNLAWYQQKPGQAPRLLIYGVSTRATAFPARFSGSGSGTEFTLTISSLQSEDFAVYYCQQYNNWPLTFGGGTKVEIK	226	170	no binding (tested: FOI <10 (FOI >=10 = positive); 25 nM)
mAb 210 (antibody, V domains shown, VH/VL only) VH: QVQLVESGGGVVQPGRSLRLSCAASGFTFSGYGMHWVRQAPGKGLEWLAIIYYNGNNRKYADSVKGRFTISRDNSKNTVSLQMNSLRVEDTAMYYCTRGDGYNWFVTWGQGTLVTVSS VL: EIVMTQSPATLSVSPGERAALSCRASQSVTSNLAWYHQKPGQAPRLLIYGASTRATGIPVRFSGSGSGTEFTLTISSLQSEDFAVYYCQQYNNWPLTFGGGTKVENK	192	168	no binding (tested: FOI <10 (FOI >=10 = positive); 25 nM)
mAb 218 (antibody, V domains shown, VH/VL only) VH: QVQLVESGGGVVQPGRSLRLSCAASGFTFSGYGMHWVRQAPGKGLEWVAIIYYNGNNRKYADSVRGRFTISRDNSKNTVSLQMNSLRVEDTAIYYCTRGDGYNWFVTWGQGTLVTVSS VL: EIVMTQSPATLSVSPGERATLSCRASQSVSSNLAWYYQKPGQAPRLLIYGASTRATGIPVRFSGSGSGTEFTLTISSLQSEDFAVYYCQQYNNWPLTFGGGTKVEIK	192	179	no binding (tested: FOI <10 (FOI >=10 = positive); 25 nM)
mAb 224 (antibody, V domains shown, VH/VL only) VH: QVQLVESGGGVVQPGRSLRLSCAASGFTFSGYGMHWVRQAPGKGLEWVAIIYYNGKKEYYADSVKGRFTISRDNSKNMLYLQMNGLRAEDTAIYYCTRGEGYNWFDPWGQGTLVTVSS VL: EIVMTQSPATLSVSPGERTTLSCRASQSVSNNLAWYQQKPGQAPRLLIYGASTRATGIPARFSGSGSGTEFTLTISSLQSEDFAVYYCQQYNNWPLTFGGGTKVEIK	212	181	no binding (tested: FOI <10 (FOI >=10 = positive); 25 nM)
mAb 226 (antibody, V domains shown, VH/VL only) VH: QVQLVESGGGVVQPGRSLRLSCAASGFTFSGYGMHWVRQAPGKGLEWVAIIYYNGNNRKYADSVKGRFTISRDNSKNTVSLQMNSLRVEDTAIYYCTRGDGYNWFVTWGQGTLVTVSS VL: EIVMTQSPATLSVSPGERATLSCRASQSISSNLAWYHQKPGQAPRLLIYGASTRATGIPVRFSGSGSGTEFTLTISSLQSEDFALYYCQQYNNWPLTFGGGTKVEIK	199	176	no binding (tested: FOI <10 (FOI >=10 = positive); 25 nM)
mAb 215 (antibody, V domains shown, VH/VL only; the VL is printed as a fragment of 18 residues only) VH: QVQLVESGGGVVQPGRSLRLSCAATGFTFSGYGMHWVRQAPGKGLEWVAIIYYNGNNRKYADSVKGRFTISRDNSKNTVSLQMNSLRVEDTAIYYCTRGDGYNWFVTWGQGTLVTVSS VL: EIVMTQSPATLSVSPGERATLSCRASQSVSSNLAWYRQKPGQAPRLLIYGASTRATGIPVRFSGSGSGTEFTLTISSLQSEDFAVYYCQQYNNWPLTFGGGTKVEIK	202	167	no binding (tested: FOI <10 (FOI >=10 = positive); 25 nM)
mAb 222 (antibody, V domains shown, VH/VL only) VH: QVQLVESGGGVVQPGRSLRLSCAASGFTFSGYGMHWVRQAPGKGLEWVAIIYYNGKKEYYADSVKGRFTISRDNSKNTVYLQMNSLRAEDTAVYYCTRGEGYNWFDPWGQGTLVTVSS VL: KIVMTQSPATLSVSPGERATLSCRASQSVSSNLAWYQQKPGQAPRLLIYGASTRATGIPARFSGSGSGTEFTLTISSLQSEDFAVYYCKQYNNWPLTFGGGTKVEIK	216	180	no binding (tested: FOI <10 (FOI >=10 = positive); 25 nM)
mAb 193 (antibody, V domains shown, VH/VL only) VH: QVQLVESGGGVVQPGRSLRLSCAASGFTFSGYGMHWVRQAPGKGLEWVAIIYYNGNNRKYADSVKGRFTISRDNSKNTVSLQMNSLRVEDTAIYYCTRGDGYNWFVTWGQGTLVTVSS VL: EIVMTQSPATLSVSPGERATLSCRASQSVSSNLAWYHQKPGQAPRLLIYGASTRATGIPVRFSGSGSGTEFTLTISSLQSDDFAVYYCQQYNNWPLTFGGGTKVEIK	206	163	no binding (tested: FOI <10 (FOI >=10 = positive); 25 nM)
mAb 196 (antibody, V domains shown, VH/VL only) VH: QEQLVESGGGVVQSGRSLRLSCVASGFKFSGYGMHWVRQAPGKGLEWVAIIYYDGKNKYYADSVKGRFTVSRDNSKNTLYLQMNSLRAEDTAVYYCTRGAGYNWFDSWGQGTLVTVSS VL: EIVMTQSPATLSVSPGERATLSCRASQSVRNNLAWYQQKPGQAPRLLIYGVSTRATAFPARFSGSGSGTEFTLTISSLQSEDFAVYYCQQYNNWPLTFGGGTKVEIK	224	172	no binding (tested: FOI <10 (FOI >=10 = positive); 25 nM)
